In publication PMC11162810, “Functional redundancy in tRNA dihydrouridylation” (Nucleic Acids Research, 2024):

Assays:
[1] = biological target: T1, BsDusB2 (Bacillus subtilis, UniProt O31546); assay: copurified flavin, UV-visible absorption and fluorescence, SDS release; assay type: binding; details: non-covalent
T1 construct: gene dus2; monomer about 39 kDa; synthetic gene (Eurofins)
T1 sequence (O31546 1-325): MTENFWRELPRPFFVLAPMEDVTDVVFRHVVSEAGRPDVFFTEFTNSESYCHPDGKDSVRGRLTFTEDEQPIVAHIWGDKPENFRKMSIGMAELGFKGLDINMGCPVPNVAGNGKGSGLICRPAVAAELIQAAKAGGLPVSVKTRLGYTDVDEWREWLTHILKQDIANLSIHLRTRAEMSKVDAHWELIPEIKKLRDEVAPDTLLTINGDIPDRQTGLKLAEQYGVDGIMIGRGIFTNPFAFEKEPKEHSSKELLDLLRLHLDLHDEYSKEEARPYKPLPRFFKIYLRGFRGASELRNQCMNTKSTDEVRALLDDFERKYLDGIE

[2] = biological target: T2, BsDusB1 (Bacillus subtilis, UniProt P37567); assay: as above; assay type: binding; details: non-covalent
T2 construct: gene dus1; monomer about 40 kDa; synthetic gene (Eurofins)
T2 sequence (P37567 1-333): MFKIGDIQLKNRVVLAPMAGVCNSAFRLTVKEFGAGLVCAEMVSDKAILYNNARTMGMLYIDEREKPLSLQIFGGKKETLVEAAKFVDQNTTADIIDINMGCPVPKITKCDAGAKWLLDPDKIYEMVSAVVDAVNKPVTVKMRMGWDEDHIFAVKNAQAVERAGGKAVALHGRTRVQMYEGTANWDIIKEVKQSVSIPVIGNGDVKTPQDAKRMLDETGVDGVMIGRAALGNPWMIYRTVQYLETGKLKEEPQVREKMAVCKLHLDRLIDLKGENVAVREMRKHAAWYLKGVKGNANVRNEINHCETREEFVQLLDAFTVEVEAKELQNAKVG

[3] = substrate: NC(=O)C1=CN([C@@H]2O[C@H](COP(=O)(O)OP(=O)(O)OC[C@H]3O[C@@H](n4cnc5c(N)ncnc54)[C@H](OP(=O)(O)O)[C@@H]3O)[C@@H](O)[C@H]2O)C=CC1; assay: purified protein; assay type: biochemical, Bacillus subtilis; details: aerobic (NAD(P)H oxidase, no tRNA mentioned)
[4] = substrate: NC(=O)C1=CN([C@@H]2O[C@H](COP(=O)(O)OP(=O)(O)OC[C@H]3O[C@@H](n4cnc5c(N)ncnc54)[C@H](O)[C@@H]3O)[C@@H](O)[C@H]2O)C=CC1; assay: purified protein; assay type: biochemical, Bacillus subtilis; details: aerobic (NAD(P)H oxidase, no tRNA mentioned)

Molecule	copurified flavin, UV-visible absorption and fluorescence, SDS release [1]	copurified flavin, UV-visible absorption and fluorescence, SDS release [2]	Km [3] [µM]	kcat [3] [s⁻¹]	kcat/Km [3] [M⁻¹ s⁻¹]	Km ([4]; kcat error missing in the table) [µM]	Km [4] [µM]	kcat [4] [s⁻¹]	kcat/Km [4] [M⁻¹ s⁻¹]
Cc1cc2nc3c(=O)[nH]c(=O)nc-3n(C[C@H](O)[C@H](O)[C@H](O)COP(=O)(O)O)c2cc1C [FMN]	both BsDusB enzymes are flavoproteins with the FMN non-covalently bound to the apoprotein	both BsDusB enzymes are flavoproteins with the FMN non-covalently bound to the apoprotein	–	–	–	–	–	–	–
BsDusB2 (Bacillus subtilis subsp. subtilis str. 168) (protein, monomer about 39 kDa; synthetic gene (Eurofins)) MTENFWRELPRPFFVLAPMEDVTDVVFRHVVSEAGRPDVFFTEFTNSESYCHPDGKDSVRGRLTFTEDEQPIVAHIWGDKPENFRKMSIGMAELGFKGLDINMGCPVPNVAGNGKGSGLICRPAVAAELIQAAKAGGLPVSVKTRLGYTDVDEWREWLTHILKQDIANLSIHLRTRAEMSKVDAHWELIPEIKKLRDEVAPDTLLTINGDIPDRQTGLKLAEQYGVDGIMIGRGIFTNPFAFEKEPKEHSSKELLDLLRLHLDLHDEYSKEEARPYKPLPRFFKIYLRGFRGASELRNQCMNTKSTDEVRALLDDFERKYLDGIE	–	–	2.1 ± 0.2	0.7 ± 0.1	300000	22 ± 4	–	–	–
BsDusB1 (Bacillus subtilis subsp. subtilis str. 168) (protein, monomer about 40 kDa; synthetic gene (Eurofins)) MFKIGDIQLKNRVVLAPMAGVCNSAFRLTVKEFGAGLVCAEMVSDKAILYNNARTMGMLYIDEREKPLSLQIFGGKKETLVEAAKFVDQNTTADIIDINMGCPVPKITKCDAGAKWLLDPDKIYEMVSAVVDAVNKPVTVKMRMGWDEDHIFAVKNAQAVERAGGKAVALHGRTRVQMYEGTANWDIIKEVKQSVSIPVIGNGDVKTPQDAKRMLDETGVDGVMIGRAALGNPWMIYRTVQYLETGKLKEEPQVREKMAVCKLHLDRLIDLKGENVAVREMRKHAAWYLKGVKGNANVRNEINHCETREEFVQLLDAFTVEVEAKELQNAKVG	–	–	18 ± 3	0.013 ± 0.002	700	–	21 ± 4	0.013 ± 0.0014	600
